Measured values published in patent US20250011421A1 (GUANGDONG ANNPO BIOTECHNOLOGY, published 2025).

T1: hTIGIT-His protein (human, UniProt Q495A1 22-141)
T1 construct: Coated on the ELISA plate at 0.5 µg/mL; also called antigen hTIGIT-his protein; not shown: His tag
T1 sequence (looked up): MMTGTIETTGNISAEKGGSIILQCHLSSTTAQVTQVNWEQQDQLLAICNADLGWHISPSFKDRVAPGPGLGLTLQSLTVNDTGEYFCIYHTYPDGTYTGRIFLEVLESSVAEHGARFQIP

T2: hTIGIT on the surface of 293F-hTIGIT-short #1B1 cells (human, UniProt Q495A1 22-162, limits assumed)
T2 construct: domain: extracellular domain and transmembrane domain; It is a truncated ('short') construct without the cytoplasmic part; also called 293F-hTIGIT-short cells; 293F-hTIGIT-short #1B1 cell line
T2 sequence (looked up): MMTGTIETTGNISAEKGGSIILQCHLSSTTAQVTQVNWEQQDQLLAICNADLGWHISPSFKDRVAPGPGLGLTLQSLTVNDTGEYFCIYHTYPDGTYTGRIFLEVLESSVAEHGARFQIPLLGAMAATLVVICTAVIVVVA

T3: mouse-derived TIGIT protein (accession number: NP_001139797.1) (mouse, UniProt P86176 29-148, limits assumed)
T3 construct: also called mouse TIGIT
T3 sequence (looked up): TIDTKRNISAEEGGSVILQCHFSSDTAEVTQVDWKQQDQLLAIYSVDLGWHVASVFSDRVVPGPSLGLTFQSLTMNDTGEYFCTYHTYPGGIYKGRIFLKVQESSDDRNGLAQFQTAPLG


Key:
hTIGIT-His protein [1] = target: T1, hTIGIT-His protein; assay: ELISA on hTIGIT-His, method as in Example 3
Protocol: (§1) The hTIGIT-his protein was diluted to 0.5 μg/mL with CBS buffer, coated in an ELISA plate in 50 μL/well, and left at 4° C. overnight. The plate was washed with PBST buffer for three times, 200 μL/well, and patted dry. 1% of BSA (dissolved in PBS) was then added, 200 μL/well, and the plate was incubated at 37° C. for 2 hours. After incubation, the plate was washed with PBST for three times, 200 μL/well, and patted dry. […] 100 μL was sucked with a multi-channel pipette, transferred into the ELISA plate, and incubated at 37° C. for 1 hour. After incubation, the plate was washed with PBST for three times, 200 μL/well, and patted dry. An anti-mouse IgG antibody labeled by HRP was diluted with 1% of BSA (dissolved in PBST) (diluted at 1:5000), 100 μL/well. Incubation was performed at 37° C. for 1 hour. After incubation, the plate was washed with PBST for three times, 200 μL/well, and patted dry. 50 μL of TMB chromogen solution was added into each well for chromogenic reaction, and the reaction time was 5 minutes in the dark. After 5 minutes of incubation, hydrochloric acid stop solution was directly added to stop the reaction in 50 μL/well. Absorbances at 450 nm (OD450) were detected by the light absorption mode of a microplate reader.

[2] = target: T2, hTIGIT on the surface of …; assay: flow cytometry on cells expressing hTIGIT, method as in Example 3
Protocol: (§2) The 293F-hTIGIT-short #1B1 cell line was digested, terminated, centrifuged, resuspended and counted, and the cell density was adjusted to 4×10⁶ cells/mL. According to 50 μL/tube, 20×10⁴ cells were added into 1.5 mL EP tubes. […] The blank group was added with 150 μL of PBS as a blank control. Gentle blowing and mixing were performed, and incubation was performed on ice for 1 hour. After incubation, 500 μL of PBS was added for centrifugal washing once, centrifugation was performed at 2000 rpm for 5 minutes, and the supernatants were discarded. A fluorescent secondary antibody was added (Alexa® 488 fluorescently labeled anti-mouse IgG antibody was diluted with PBS (diluted at 1:500) and added to the corresponding tubes in 200 μL/tube), gentle blowing and mixing were performed, and incubation was performed on ice in the dark for 30 minutes. After 30 minutes of incubation, signal detection was performed with a flow cytometer.
The method was the same as that in example 3.

[3] = target: T2, hTIGIT on the surface of …; assay: flow cytometry competition on 293F-hTIGIT-short cells; competitor PVR (method as in Example 4)
hTIGIT-His protein [4] = target: T1, hTIGIT-His protein; assay: ELISA, hTIGIT-His coated at 0.5 µg/mL
Protocol: as §1

[5] = target: T3, mouse-derived TIGIT protein (accession …); assay: indirect ELISA, method as in Example 3
Protocol: as §1, with “The” for “The hTIGIT-his protein was diluted to 0.5 μg/mL with CBS buffer, coated in an ELISA plate in 50 μL/well, and left at 4° C. overnight. The”

[6] = target: T2, hTIGIT on the surface of …; assay: flow cytometry on 293F-hTIGIT-short #1B1 cells
Protocol: as §2

[7] = target: T2, hTIGIT on the surface of …; assay: flow cytometry competition on 293F-hTIGIT-short #1B1 cells; competitor PVR-hFc at 6 µg/mL
Protocol: The 293F-hTIGIT-short #1B1 cell line was digested, terminated, centrifuged, resuspended and counted, and the cell density was adjusted to 4×10⁶ cells/mL. According to 50 μL/tube, 20×10⁴ cells were added into 1.5 mL EP tubes. […] 100 μL of PBS was added into the blank group. Gentle blowing and mixing were performed, and incubation was then performed on ice for 1 hour. After incubation, 500 μL of PBS was added for centrifugal washing once, centrifugation was performed at 2000 rpm for 5 minutes, and the supernatants were discarded. Alexa® 488 fluorescently labeled anti-mouse or anti-human IgG antibody was diluted with PBS (diluted at 1:500) and added to the corresponding tubes in 200 μL/tube, gentle blowing and mixing were performed, and incubation was performed on ice in the dark for 30 minutes. After 30 minutes of incubation, signal detection was performed with a flow cytometer.

[8] = target: T2, hTIGIT on the surface of …; assay: flow cytometry competition on 293F-hTIGIT-short #1B1 cells; competitor 4.1D3 at 6 µg/mL, detected with anti-human IgG
Protocol: Cells were collected and counted. […] Seven concentrations were obtained by gradient dilution in 1:3, and added into the corresponding tubes in 50 μL/tube. […] After incubation, 500 μL of PBS was added for centrifugal washing once, centrifugation was performed at 1000 rpm for 5 minutes, and the supernatants were discarded. […] After 30 minutes of incubation, they were loaded for assay. The samples were loaded for assay by using a flow cytometer.

Row | EC50 (hTIGIT-His protein [1]) [µg/mL] | EC50 [2] [µg/mL] | IC50 [3] [µg/mL] | EC50 (hTIGIT-His protein [4]) [µg/mL] | binding result [5] | EC50 [6] [µg/mL] | IC50 [7] [µg/mL] | IC50 [8] [µg/mL] | Binder
1 | 0.007 | 2.98 | 5.21 | – | – | – | – | – | hTIGIT humanized antibody h51C1 (antibody, human IgG1, V domains shown, also called 51C1-H2L2) VH: QVQLVQSGAEVKKPGASVKVSCKASGYTFTEYFIHWVRQAPGQGLEWIGWFYPGSGSIKYNERFKDRVTLTADTSISTAYMELSRLRSDDTAVYYCARHEMRYGNYVLDYWGQGTTVTVSS VL: QAVVTQEPSLTVSPGGTVTLTCRSSTGAVTTRNYANWVQQKPGQAPRGLIGGTNNRVPGVPARFSGSLLGGKAALTLSGAQPEDEAEYYCGLWYSNHLVFGGGTKLTVLG
2 | 0.006 | 1.57 | 2 | – | – | – | – | – | hTIGIT humanized antibody h60H5 (antibody, human IgG1, V domains shown, also called 60H5-H2L1) VH: QVQLVQSGAEVKKPGASVKVSCKTSGYTFTEYTMHWVRQAPGQRLEWIGGINPNNGGTSYNQKFQGRVTITVDTSASTAYMELSSLRSEDTAVYYCARSGNWDYAMDYWGQGTTVTVSS VL: DIQMTQSPSSMSASVGDRVTITCKASQHVSTAVVWYQQKPGKAPKLLIYSASYRYTGVPDRFSGSGSGTDFTFTISSLQPEDIATYYCQQHYITPWTFGGGTKLEIKR
3 | – | – | – | 0.00396 | no binding | 0.811 | 1.35 | 4.08 | hTIGIT mouse-derived antibody m51C1 (antibody, V domains shown, Mouse monoclonal antibody from a hybridoma) VH: QVQLQQSGAELVKPGASVKLSCKASGYTFTEYFIHWIKQKSGQGLEWIGWFYPGSGSIKYNERFKDKATLTADKSSSTVYMELSRLTSEDSAVYFCARHEMRYGNYVLDYWGQGTTLTVSS VL: QAVVTQESALTTSPGETVTLTCRSSTGAVTTRNYANWVQEKPDHLFTGLIGGTNNRVPGVPARFSGSLIGDKAALTITGAQTEDEAIYFCGLWYSNHLVFGGGTKLTVLG
